From the supplement of paper PMC9112550, “Optimization of the antimicrobial peptide Bac7 by deep mutational scanning” (BMC Biology, 2022) come the findings set out here.

This series concerns Escherichia coli TOP10. In words: shrunken log2 fold change of peptide-encoding DNA abundance (4.5 h post-induction vs induction); higher = less antimicrobial activity (less host growth inhibition). The conditions noted are these: time post-induction: 4.5 h; library: site-saturation at positions 5, 18, 19, 20.
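Note: peptides expressed intracellularly from a pBAD plasmid library in pooled LB shake-flask culture, induced with 0.3% L-arabinose, DNA abundance read by NGS, three biological replicates, DESeq2 with apeglm shrinkage.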

With RRIRQRPPRLPRPRPRPDLPPRP, the “shrunken log2 fold change” value is -0.134.

RRIRGRPPRLPRPRPRPCLEPRP: the “shrunken log2 fold change” value worked out at 0.546.

RRIRPRPPRLPRPRPRPQKAPRP: the “shrunken log2 fold change” value stood at 1.05.

Consider RRIRQRPPRLPRPRPRPIGSPRP, for which the “shrunken log2 fold change” value is -0.00968.

RRIRVRPPRLPRPRPRPWPEPRP: the “shrunken log2 fold change” value is 0.465.

On to RRIRIRPPRLPRPRPRPGGFPRP, for which the “shrunken log2 fold change” value came to 0.179.

Take RRIRWRPPRLPRPRPRPEEVPRP: the “shrunken log2 fold change” value was -0.0142.

Turning to RRIRMRPPRLPRPRPRPCEQPRP, the “shrunken log2 fold change” value was 0.195.

On to RRIRFRPPRLPRPRPRPEARPRP, for which the “shrunken log2 fold change” value was -0.137.

Turning to RRIRQRPPRLPRPRPRPCDLPRP, the “shrunken log2 fold change” value was -0.265.

Take RRIRMRPPRLPRPRPRPMTLPRP: the “shrunken log2 fold change” value came out at 0.113.

In the case of RRIRDRPPRLPRPRPRPMMKPRP, the “shrunken log2 fold change” value amounted to 0.157.

As to RRIRERPPRLPRPRPRPTMEPRP, the “shrunken log2 fold change” value is -0.116.

Take RRIRFRPPRLPRPRPRPNMEPRP: the “shrunken log2 fold change” value was -0.129.

Take RRIRMRPPRLPRPRPRPMVNPRP: the “shrunken log2 fold change” value was -0.254.

RRIRPRPPRLPRPRPRPWKQPRP: the “shrunken log2 fold change” value worked out at 0.0524.

Take RRIRNRPPRLPRPRPRPRTRPRP: the “shrunken log2 fold change” value turned out to be 0.368.

As to RRIRHRPPRLPRPRPRPDVMPRP, the “shrunken log2 fold change” value was -0.374.

Turning to RRIRQRPPRLPRPRPRPCYKPRP, the “shrunken log2 fold change” value is -0.271.

As for RRIRFRPPRLPRPRPRPQCIPRP, the “shrunken log2 fold change” value is -0.0639.

With RRIRSRPPRLPRPRPRPNVAPRP, the “shrunken log2 fold change” value was -0.0788.

As for RRIRYRPPRLPRPRPRPHLNPRP, the “shrunken log2 fold change” value was -1.15.

As for RRIRFRPPRLPRPRPRPMKFPRP, the “shrunken log2 fold change” value was -0.681.

For RRIRKRPPRLPRPRPRPHRCPRP, the “shrunken log2 fold change” value turned out to be 0.0753.

With RRIRHRPPRLPRPRPRPVPNPRP, the “shrunken log2 fold change” value was -8.36e-05.

For RRIRGRPPRLPRPRPRPYSWPRP, the “shrunken log2 fold change” value stood at 0.187.

On to RRIRRRPPRLPRPRPRPDWTPRP, for which the “shrunken log2 fold change” value is -0.133.

Turning to RRIRDRPPRLPRPRPRPFLYPRP, the “shrunken log2 fold change” value stood at 1.81.

As for RRIRFRPPRLPRPRPRPTRYPRP, the “shrunken log2 fold change” value was determined as 0.172.

RRIRKRPPRLPRPRPRPLQKPRP: the “shrunken log2 fold change” value is -0.0368.

For the sequence RRIRMRPPRLPRPRPRPVYKPRP, the “shrunken log2 fold change” value is -0.014.

In the case of RRIRWRPPRLPRPRPRPKGYPRP, the “shrunken log2 fold change” value is 0.0648.

RRIRVRPPRLPRPRPRPTWMPRP: the “shrunken log2 fold change” value is 0.0438.

As to RRIRPRPPRLPRPRPRPARDPRP, the “shrunken log2 fold change” value came to 0.208.

RRIRHRPPRLPRPRPRPQERPRP: the “shrunken log2 fold change” value was -0.0325.

For the sequence RRIRERPPRLPRPRPRPDVMPRP, the “shrunken log2 fold change” value was 0.0164.

Turning to RRIRHRPPRLPRPRPRPYHEPRP, the “shrunken log2 fold change” value is -0.0135.

As to RRIRQRPPRLPRPRPRPHYYPRP, the “shrunken log2 fold change” value was -0.0332.

Consider RRIRWRPPRLPRPRPRPHHFPRP, for which the “shrunken log2 fold change” value is -0.0138.

Consider RRIRDRPPRLPRPRPRPGIEPRP, for which the “shrunken log2 fold change” value turned out to be 0.103.

Take RRIRYRPPRLPRPRPRPRFRPRP: the “shrunken log2 fold change” value was -0.213.

Take RRIRRRPPRLPRPRPRPMWGPRP: the “shrunken log2 fold change” value is 0.0327.

Turning to RRIRERPPRLPRPRPRPYWQPRP, the “shrunken log2 fold change” value is -0.172.

As to RRIRTRPPRLPRPRPRPIIPPRP, the “shrunken log2 fold change” value is -0.279.

With RRIRYRPPRLPRPRPRPGKVPRP, the “shrunken log2 fold change” value is -0.204.

As for RRIRCRPPRLPRPRPRPPQHPRP, the “shrunken log2 fold change” value was 0.49.

As to RRIRPRPPRLPRPRPRPCKWPRP, the “shrunken log2 fold change” value is -0.32.

In the case of RRIRHRPPRLPRPRPRPLKVPRP, the “shrunken log2 fold change” value came to 0.0138.

On to RRIRDRPPRLPRPRPRPERSPRP, for which the “shrunken log2 fold change” value stood at 0.239.

In the case of RRIRLRPPRLPRPRPRPECCPRP, the “shrunken log2 fold change” value turned out to be 0.338.
